Laboratory results published in patent US20220380473A1, “ANTI-GAL3 ANTIBODIES AND USES THEREOF” (TrueBinding, Inc., priority 2019, published 2022).
Entries after “also recorded” stand apart in the source; their conditions may differ.

Tests used:
4T1 cells = assay: 4T1 orthotopic tumor induced lung metastasis model; type: in vivo, mouse; conditions: 10 mg/Kg i.p., day 30, vs isotype control
Protocol: On the day of tumor implantation, 4T1 cells were collected, washed and resuspended in PBS. Mice were anesthetized by inhalation anesthetic (3 to 5% Isoflurane in medical grade air). 2×10^5 cells in 0.1 mL PBS were subcutaneously injected into the mammary gland by using a syringe with a 25-ga needle. Mice were randomly assigned into two groups (n=10). […] The tumor volumes and body weights were monitored twice per week. On day 30, the mice were humanely sacrificed and lung tissues were inflated with 30% sucrose, removed and fixed in Bouin's solution (Sigma-Aldrich). […] Results were expressed as mean±SEM.

Renca cells = assay: Primary mouse Renca renal tumor model; type: in vivo; conditions: vs isotype control
Protocol: On the day of tumor implantation, mice were anesthetized by inhalation anesthetic (3 to 5% Isoflurane in medical grade air), Renca cells were washed and resuspended in PBS before subcutaneously injecting 2×10^5 cells in 0.1 mL, PBS using a syringe with a 25-ga needle. […] The animals were humanely sacrificed when tumor volume in the control group reached between 2000-2500 mm^3. Results were expressed as mean±SEM. The statistical analysis was performed in comparison with IgG2b control group using unpaired t test.

[1] = test system: MC38 murine colon adenocarcinoma cells; assay: Primary mouse MC38 colon tumor model; type: in vivo
Protocol: On the day of tumor implantation, MC38 murine colon adenocarcinoma cells were collected, washed and resuspended in PBS. Mice were anesthetized by inhalation anesthetic (3 to 5% Isoflurane in medical grade air). 5×10^5 cells in 0.1 mL PBS were subcutaneously injected into the right flank of mice by using a syringe with a 25-ga needle. On day 7, the tumor volumes were measured and mice were randomly assigned into two groups (n=8). […] The tumor volumes and body weights were monitored twice per week. The animals were humanely sacrificed when tumor volume reached 3000 mm^3. Results were expressed as mean±SEM.

B16F10 cells = assay: Immune profiling in B16F10 lung metastasis mice; type: in vivo, mouse; conditions: 10 mg/kg I.P., day 8, vs isotype control
Protocol: Mice were implanted with 1 million B16F10 cells I.V. Mice were then treated with IMT001 or isotype control (10 mg/kg I.P.) on Day 0, 1, 3 and 7 and sacrificed on day 8 for lung immune cell isolation and phenotyping. Cells were isolated from the lungs, and then stained with fluorescently labeled antibodies against lymphocyte markers CD3, CD4, CD8, CD19, DX5 and analyzed by flow cytometry.

[2] = test system: RAW macrophages/DO11.10 T cell mixed reaction; assay: Mixed Lymphocyte Reaction, RAW macrophages/DO11.10 T cells, IL-2; type: cell-based, mouse; conditions: 10 μg/ml, overnight, vs mIgG
Protocol: RAW mouse macrophage cells were mixed with […] mouse T cells at 1:1 ratio, treated with OVA peptide, and cultured in the presence of mIgG (BD Biosciences), anti mPD1 antibody 29F (BioXCell) or IMT001 at 10 μg/ml for overnight 37° C. 50 μl of the culture medium was taken for mIL-2 measurement. The mIL-2 production was measured according to the commercial kit mouse IL-2 Elisa Ready-SET-Go from eBioscience.

MBT-2 cells = assay: MBT-2 bladder tumor model, combination with anti-PD1 or anti-PD-L1; type: in vivo, mouse; conditions: 20 mg/Kg i.p.
Protocol: To evaluate the potential for GAL3-TIM3 blocking antibodies to influence tumor biology, studies were conducted in mice bearing MBT-2 bladder tumor xenografts in combination with other antibodies targeting the immunomodulatory checkpoint molecules PD-1 and PD-L1. Briefly, 7-week old female C3H/HeJ mice (Jackson Laboratory) were anesthetized by inhalation anesthetic (3 to 5% Isoflurane in medical grade air) and 1×10^6 MBT-2 cells (Sekisui XenoTech, LLC) in 0.1 mL PBS were subcutaneously injected into the right flank by using a syringe with a 25-ga needle. 7 days after tumor implantation, mice were randomly assigned into six groups (n=9-10). Mice were administrated intraperitoneally with isotype control mIgG2b (BioXCell), anti-Gal3 (mIMT001), anti-PD1 (RMP1-14, BioXCell) plus mIgG2b, anti-PD1 (RMP1-14) plus mIMT001, anti-PDL1 (10F.9G2, BioXCell) plus mIgG2b, and anti-PDL1 (10F.9G2) plus mIMT001. Isotype control and anti-Gal3 antibodies were dosed at 20 mg/Kg on day 7, 9, 12, 14 and 16; anti-PD1 (RMP1-14 10 mg/Kg) or anti-PDL1 (10F.9G2, 5 mg/Kg) were dosed on day 8, 12, and 15. Tumor volumes and body weights were monitored twice per week. The animals were humanely sacrificed when tumor volumes or animal health reached IACUC-defined endpoints. Results were expressed as mean±SEM, with statistical analysis performed by two-way ANOVA.

[3] = test system: MCD mouse model of liver fibrosis; assay: Methionine-choline deficient (MCD) mouse model of liver fibrosis; type: in vivo
Text: To further investigate the ability of GAL3-TIM3 blocking antibodies to influence liver fibrosis, the methionine-choline deficient (MCD) mouse model of liver fibrosis was employed. Briefly, Six-week-old male C57Bl/6 mice (Jackson Laboratory) were fed either a normal diet (Envigo, #2020X; n=5 mice); or MCD diet (Fisher Scientific, #MP296043910, n=25) for 8 weeks and continuously through the remainder of the study. Mice were divided into three groups (7 mice each) and randomized based on ALT score. Group 1 and 2 were treated mouse anti-mIgG2aLala isotype control (mISO, 10 mg/kg) or mouse anti-Gal3 antibody (mIMT001, 10 mg/kg) twice a week of IP injection for 4 weeks, at which time animals were sacrificed and liver specimens were collected, fixed in 4% paraformaldehyde (Electron Microscopy Sciences, Cat #15710S) for 24 hours, transferred to 70% EtOH for 72 hours, and samples were subsequently embedded in paraffin. […] Brightfield images were acquired under a Revolve microscope (Discover Echo, Inc.).
To assess fibrosis in these specimens, tissue sections were evaluated for the deposition of fibrotic collagen deposits by picosirius red staining. Briefly, after deparaffinization, liver specimens from isotype control- or IMT001-treated MCD mice were rehydrated in serial ethanol baths, sections were stained in 0.01% Fast green FCF Solution (Cat #1.04022.0025 MilliporeSigma) in saturated picric aqueous solution for 15 minutes at room temperature, followed by 1 h incubation at room temperature in 0.04% Fast green FCF/0.1% Sirius red in saturated picric aqueous solution, prior to their dehydration, clearing and mounting. Images were quantitated using ImageJ software (Rasband, W. S., ImageJ, U. S. National Institutes of Health, Bethesda, Md., USA, world wide web.imagej.nih.gov/ij/)

[4] = 10 mg/kg twice a week IP for 4 weeks

B1: IMT001: anti-Gal3 monoclonal antibody (Immutics); printed as mIMT001 (IMT001), murine (antibody, V domains shown)
VH: QIQLVQSGPELKKPGETVKISCKASGYTFTNYGMNWVKQAPGKGLKWMGWINTNTGEPTYVEEFKGRFAFSLETSASTAYLQINNLKNEDTATYFCAPYDNFFAYWGQGTLVTVSA
VL: DIVITQDELSNPVTSGESVSISCRSSKSLLYKDGKTYLNWFLQRPGQSPQLLIYLMSTHASGVSDRFSGSGSGTDFTLEISRVKAEDVGVYYCQQLVDYPLTFGAGTKLELK
lung metastatic number (4T1 cells): significant reduction of lung metastatic number | reduction of tumor growth (Renca cells; 10 mg/Kg i.p.): about 35% | effect on tumor size (Renca cells): much reduced tumor size | reduction of tumor burden ([1]; 10 mg/Kg i.p., day 24, vs isotype control): about 33% | effect on tumor size ([1]; vs isotype control): much reduced tumor size | number of immune effector cells in lungs (CD3, CD4, CD8, CD19, DX5) (B16F10 cells): increased the number of various immune effector cell | production of IL-2 [2]: enhanced the production of IL-2 | effect on tumor volume, single agent (MBT-2 cells): did not exhibit any significant decrement in tumor volume; also recorded: did not reduce tumor volumes | apoptotic ballooning cells, image-based quantification [3, 4]: 0.98 | infiltrating lobular immune cells, image-based quantification [3, 4]: 0.73 | steatosis, image-based quantification [3, 4]: 1 | NAS score ([3]; integrated score): 2.72 | picosirius red staining, % of the tissue area ([3]; liver sections): 1.25% | reduction of ballooning ([3]; vs control-treated): 27% | reduction of lobular immune cells ([3]; vs control-treated): 59% | reduction of steatosis ([3]; vs control-treated): 15% | reduction of NAS score ([3]; vs isotype control): 43% | reduction of picosirius red staining ([3]; vs isotype control): 71%
